# Test results: patent publication US20090074766A1, “Methods of inhibiting HIV-2 infection” (priority 2007, published 2009)
# “And” between values parts separate entries of the source, which are not always exact repeats. Equal entries are not always repeated.
# How the values were obtained:
# [1] = system: viruses in PRO 140-treated subjects; test: Phase 1b: virus susceptibility of subjects' viruses (PhenoSense Assay); type: cell-based, HIV-1
# Text: A non-limiting example of a widely used phenotypic HIV drug resistance test is the PhenoSense™ HIV assay, which measures the sensitivity of a virus to antiretroviral drugs.
# [2] = system: R5 HIV-2 A2267; test: Inhibition of replication in PBMC cultures, RT activity readout: HIV-2 A2267; type: cell-based
# Experimental: (§1) Viruses: All virus isolates were grown and titered exclusively in stimulated PBMC as described previously. […] The HIV-2 isolates used in this study have been previously described (Owen, S. M., Ellenberger, D., Rayfield, M., Wiktor, S., Michel, P., Grieco, M. H., Gao, F., Hahn, B. H., and Lai, R. B. 1998. Genetically Divergent Strains of Human Immunodeficiency Virus Type 2 Use Multiple Coreceptors for Entry. J Virol 72:5425-5432) and were obtained from the NIH AIDS Research and Reference Reagent Program.
# (§2) PA14 (Lot # DF-021204) was produced for reagent use in the Research & Development laboratories of Progenics Pharmaceuticals Inc.
# (§3) Inhibition of HIV-1 and HIV-2 replication in PBMC cultures: PBMC were isolated from 34 healthy blood donors with Ficoll-Hypaque (all media from Cellgro, Herndon, Va.) and depleted of CD8+ cells using RosetteSep CD8 depletion cocktail (StemCell Technologies) according to the manufacturer's instructions. Equal numbers of cells from each donor were then separately stimulated with 5 ug phytohemagglutinin/ml (Sigma, St. Louis, Mo.) or with surface-immobilized anti-CD3 antibody OKT3 in RPMI 1640 medium containing 10% fetal calf serum, 100 Units of interleukin-2/ml (NIH AIDS Research and Reference Reagent Program), glutamine, and antibiotics (PBMC culture medium) as previously described. After 72 hours, equal numbers of PBMC stimulated by one of these two methods from each donor were combined for use in infection assays as follows. […] The virus inoculum was adjusted to 400 to 2,000 times the TCID50 per ml in PBMC culture medium, and a 50-ul aliquot was added to each culture. The inhibitory doses refer to the concentrations of the agents present at this point in the culture, when virus, cells, and inhibitors were all present at their final concentrations. Reverse Transcriptase (RT) activity was measured on Day 7 post infection (pi) for HIV-1 and Day 10 pi for HIV-2 by the Reverse Transcriptase Assay, Colorimetric kit, #11 468 120 910, Roche (Switzerland) according to the manufacturer's instructions with the following exception: neither ultracentrifugation nor PEG precipitation of the culture supernatants was performed before viral lysis.
# (§4) The inhibition data were analyzed using GraphPad Prism software (GraphPad Software, San Diego, Calif.). A 4-parameter logistic fit was used calculate the concentration of inhibitor that afforded a 50% and a 90% reduction in RT activity. […] The % inhibitions where best-fit curve reached a top plateau, also as calculated by GraphPad Prism software, are reported as well as maximum percent inhibition (MPI). […] Inhibition curves with a poor sigmoid fit (R^2<0.7) were excluded from data analysis.
# [3] = system: R5X4 HIV-2 77618; test: Inhibition of replication in PBMC cultures, RT activity readout: HIV-2 77618; type: cell-based
# Experimental: as §1, §2, §3, §4
# [4] = system: R5 HIV-1 CC 1/85; test: Inhibition of replication in PBMC cultures, RT activity readout: HIV-1 CC 1/85; type: cell-based
# Experimental: as §1, §2, §3, §4
# [5] = system: R5 HIV-1 JR-FL; test: Inhibition of replication in PBMC cultures, RT activity readout: HIV-1 JR-FL; type: cell-based
# Experimental: as §1, §2, §3, §4
# [6] = system: CCR5 chemokine signaling; test: RANTES-induced calcium mobilization in L1.2-CCR5 cells vs HIV-1JR-FL replication in PBMC (FIG. 4); type: cell-based, human; settings: FIG. 4 legend, result in words
# Text: Similar results were obtained for MIP-1α and MIP-1β.
# [7] = system: R5 HIV-2 310340; test: Inhibition of replication in PBMC cultures, RT activity readout: HIV-2 310340; type: cell-based
# Experimental: as §1, §2, §3, §4
# [8] = human, in vivo
# Experimental: Sera were diluted as appropriate and combined with L1.2-CCR5 cells, which are mouse pre-B lymphoma cells engineered to stably express human CCR5. […] Following incubation with test samples, cells were washed and combined with a FITC-labeled sheep antibody against human IgG4 (The Binding Site Limited, Cat. #AF009). Cells were washed again and analyzed by flow cytometry.
# Serum was collected post-treatment, cryopreserved, and analyzed for PRO 140 levels. Peak serum concentrations ranged to […] at 0.1 mg/kg and […] at 0.5 mg/kg.
# [9] = system: R5X4 HIV-2 310342; test: Inhibition of replication in PBMC cultures, RT activity readout: HIV-2 310342; type: cell-based
# Experimental: as §1, §2
# Inhibition of HIV-1 and HIV-2 replication in PBMC cultures: PBMC were isolated from 34 healthy blood donors with Ficoll-Hypaque (all media from Cellgro, Herndon, Va.) and depleted of CD8+ cells using RosetteSep CD8 depletion cocktail (StemCell Technologies) according to the manufacturer's instructions. […] Reverse Transcriptase (RT) activity was measured on Day 7 post infection (pi) for HIV-1 and Day 10 pi for HIV-2 by the Reverse Transcriptase Assay, Colorimetric kit, #11 468 120 910, Roche (Switzerland) according to the manufacturer's instructions with the following exception: neither ultracentrifugation nor PEG precipitation of the culture supernatants was performed before viral lysis. […]
# [10] = system: HIV-1; settings: Olson et al., 1999; Trkola et al., 2001; cited from earlier work
# [11] = target: T1, CCR5 (Homo sapiens, UniProt P51681); test: Competition binding: inhibition of 3H-UK-427,857 binding to CEM.NKR-CCR5 cells; settings: read-out: EC50 for inhibition of 3H-UK-427,857 binding; 2 nM 3H-UK-427,857, pre-incubation with unlabeled compound
# T1 construct: host or cells: CEM.NKR-CCR5 (transduced human T cell leukemia line)
# Text: Cells were washed and then analyzed for radioactivity by scintillation counting.
# The cells were washed in PBSA and lysed with 0.5N HCl prior to scintillation counting using a Wallac1410 instrument.
# [12] = system: CCR5 lymphocytes; test: Phase 1b clinical trial: coating of CCR5 lymphocytes (flow cytometry ex vivo)
# [13] = CC 1/85, current study n = 5, mean
# [14] = HIV-1 JR-FL, R5, median, current study n = 5
# [15] = JR-FL, current study n = 5, mean
# T1 sequence (P51681 whole entry): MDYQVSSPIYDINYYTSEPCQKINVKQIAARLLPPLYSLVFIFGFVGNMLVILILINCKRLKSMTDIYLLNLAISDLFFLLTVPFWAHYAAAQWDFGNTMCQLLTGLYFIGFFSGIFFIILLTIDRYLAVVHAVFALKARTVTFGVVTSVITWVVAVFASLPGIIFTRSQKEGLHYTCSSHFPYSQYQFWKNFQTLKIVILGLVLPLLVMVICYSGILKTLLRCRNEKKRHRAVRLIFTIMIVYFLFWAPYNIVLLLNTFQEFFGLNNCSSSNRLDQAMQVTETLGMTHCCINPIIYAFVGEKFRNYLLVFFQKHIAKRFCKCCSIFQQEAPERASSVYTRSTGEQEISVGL
molecule,measurement,setting,value
"PRO 140: humanized IgG4,κ anti-CCR5 monoclonal antibody, humanized version of murine mAb PA14 (antibody, chains of the INN, looked up, V domains shown) VH: EVQLVESGGGLVKPGGSLRLSCAASGYTFSNYWIGWVRQAPGKGLEWIGDIYPGGNYIRNNEKFKDKTTLSADTSKNTAYLQMNSLKTEDTAVYYCGSSFGSNYVFAWFTYWGQGTLVTVSS VL: DIVMTQSPLSLPVTPGEPASISCRSSQRLLSSYGHTYLHWYLQKPGQSPQLLIYEVSNRFSGVPDRFSGSGSGTDFTLKISRVEAEDVGVYYCSQSTHVPLTFGQGTKVEIK",change in rIC50 post-treatment,[1]; all subjects,Less than 2 fold
same,Mean Maximum Percent Inhibition (MPI),[1]; baseline,99% (range: 93-100%)
same,Mean rIC50,[1]; baseline,2.0 (range: 0.83-5.1)
same,Mean MPI,[1]; post-treatment,99% (range: 93-100%)
same,Mean rIC50,[1]; post-treatment,2.1 (range: 0.98-4.71)
same,EC50 (median),"[2]; HIV-2 A2267, R5",0.10 µg/mL
same,EC90 (median),"[2]; HIV-2 A2267, R5",98 µg/mL
same,MPI (maximum percent inhibition),"[2]; R5 HIV-2 A2267, individual assays (Source)",97% and 115% and 88% and 94% and 75%
same,"MPI, Median","[2]; R5 HIV-2 A2267, median of assays with R^2 >= 0.7",94%
same,EC50 (median),"[3]; HIV-2 77618, R5X4",>100 µg/mL
same,EC90 (median),"[3]; HIV-2 77618, R5X4",>100 µg/mL
same,MPI: Maximum percent inhibition as determined from the plateau of the sigmoidal curve fit,"[3]; Virus: R5X4 HIV-2 77618, individual experiments (Source)",6% and −2%
same,"MPI, Median","[3]; Virus: R5X4 HIV-2 77618, median of experiments",2%
same,EC50 (mean),[4]; [13],<7.7 µg/mL
same,EC90 (mean),[4]; [13],23 µg/mL
same,EC90 (median),"[4]; HIV-1 CC 1/85, R5, median, current study n = 5",6.0 µg/mL
same,MPI (maximum percent inhibition),"[4]; R5 HIV-1 CC 1/85, individual assays (Source)",94% and 93% and 102% and 95%
same,"MPI, Median","[4]; R5 HIV-1 CC 1/85, median of assays",95%
same,EC50 (median),[5]; [14],0.09 µg/mL
same,EC90 (median),[5]; [14],7.0 µg/mL
same,EC50 (mean),[5]; [15],<0.97 µg/mL
same,EC90 (mean),[5]; [15],22 µg/mL
same,MPI (maximum percent inhibition),"[5]; R5 HIV-1 JR-FL, individual assays (Source)",100% and 103% and 101% and 110%
same,"MPI, Median","[5]; R5 HIV-1 JR-FL, median of assays with R^2 >= 0.7",102%
same,effect on HIV-1 vs chemokine signaling,[6],blocks HIV-1 but not chemokine signaling
same,EC50 (median),"[7]; HIV-2 310340, R5",4.7 µg/mL
same,EC90 (median),"[7]; HIV-2 310340, R5",>100 µg/mL
same,MPI: Maximum percent inhibition as determined from the plateau of the sigmoidal curve fit,"[7]; Virus: R5 HIV-2 310340, individual experiments (Source)",87% and 74% and 90% and 78%
same,"MPI, Median","[7]; Virus: R5 HIV-2 310340, median of experiments, poor curve fits (R^2 < 0.7) excluded",83%
same,terminal serum half-life,[8],240 to 288 h
same,EC50 (median),[9],>100 µg/mL
same,EC90 (median),[9],>100 µg/mL
same,IC90,[10],about 4 μg/ml
same,EC50,[11],14 nM
same,depletion of CCR5+ lymphocytes,[12],No depletion of CCR5+ lymphocytes
